Assay results: patent US20240025988A1 (GlaxoSmithKline, published 2024)
Several values for one entry are separate records, joined by “and”; a condition that tells them apart may be missing. Identical values can stand only once. One block for each binder: values may come before it.

How the values were obtained:
cynomolgus monkey IL-7 [1] = biological target: T1, cynomolgus monkey IL-7 (cynomolgus monkey, UniProt A0A2K5W745 26-178); test: SPR, Biacore 8K, 37 °C (text value; Table 5 prints 73); 37 C; value of the running text
T1 construct: also called cynoIL-7; cynomolgus IL-7
T1 sequence: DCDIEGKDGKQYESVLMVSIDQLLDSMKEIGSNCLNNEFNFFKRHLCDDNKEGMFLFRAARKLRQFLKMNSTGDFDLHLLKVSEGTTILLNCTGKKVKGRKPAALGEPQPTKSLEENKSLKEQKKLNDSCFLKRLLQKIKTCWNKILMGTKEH
From the text: (§1) (Table 5). […] (Table 5).

human IL-7 [2] = biological target: T2, human IL-7 (human, UniProt P13232 26-177); test: cell-based or functional assay
T2 sequence: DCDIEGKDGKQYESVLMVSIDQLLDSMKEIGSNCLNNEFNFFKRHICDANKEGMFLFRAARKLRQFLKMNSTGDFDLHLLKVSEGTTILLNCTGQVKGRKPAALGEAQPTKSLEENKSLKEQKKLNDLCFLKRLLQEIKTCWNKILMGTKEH

cynomolgus monkey IL-7 [3] = biological target: T1, cynomolgus monkey IL-7; test: SPR, Biacore 8K, 37 °C, IL-7 as analyte
From the text: as §1

human IL-7 [4] = biological target: T2, human IL-7; test: SPR, Biacore 8K, 37 °C, IL-7 as analyte
From the text: as §1

human IL-7 [5] = biological target: T2, human IL-7; test: cell-based or functional assay; remark: listed apart in the source
human IL-7 [6] = biological target: T2, human IL-7; test: SPR, Biacore 8K, 37 °C; geometric mean KD from all experiments, with 85% confidence interval in brackets
cynomolgus monkey IL-7 [7] = biological target: T1, cynomolgus monkey IL-7; test: SPR, Biacore 8K, 25 °C, IL-7 as analyte
From the text: as §1

human IL-7 [8] = biological target: T2, human IL-7; test: SPR, Biacore 8K, 25 °C, IL-7 as analyte
From the text: as §1

Kd (cynomolgus monkey IL-7 [1]): ~0.075 nM | IL-6 secretion by CD4+ Tmem cells, IC50 (human IL-7 [2]): 0.202 nM | IL-10 secretion by PBMC (rhIL-7 and anti-CD3), mean IC50 (human IL-7 [2]): 0.207 nM | TNFα secretion by CD4+ Tmem cells, IC50 (human IL-7 [2]): 0.127 nM | Kd (cynomolgus monkey IL-7 [3]): 0.073 nM | koff (cynomolgus monkey IL-7 [3]): 0.000462 s⁻¹ | kon (cynomolgus monkey IL-7 [3]): 6.17e+06 M⁻¹ s⁻¹ | Kd (human IL-7 [4]): 0.069 nM and 0.046 nM and 0.075 nM and 0.087 nM | koff (human IL-7 [4]): 0.000568 s⁻¹ and 0.000678 s⁻¹ and 0.000826 s⁻¹ and 0.000515 s⁻¹ | kon (human IL-7 [4]): 8.28e+06 M⁻¹ s⁻¹ and 1.47e+07 M⁻¹ s⁻¹ and 1.1e+07 M⁻¹ s⁻¹ and 5.9e+06 M⁻¹ s⁻¹ | IFN-γ production by PBMC, IC50 (IL-7 10 ng/ml, anti-CD3) (human IL-7 [5]): 196 pM and 29.4 ng/ml | IL-17 production by Tmem, IC50 (IL-7 20 ng/ml) (human IL-7 [5]): 40.5 ng/ml and 270 pM | Teff and Tmem proliferation (CD4+), IC50 (IL-7 10 ng/ml) (human IL-7 [5]): 79.5 ng/ml and 530 pM | Teff and Tmem proliferation (CD4+), IC50 (IL-7 20 ng/ml) (human IL-7 [5]): 78 ng/ml and 520 pM | pSTAT5 in CCRF-CEM cells, IC50 (IL-7 0.034 ng/ml, 2 pM) (human IL-7 [5]): < 0.15 ng/ml and < 1 pM | pSTAT5 in whole blood (CD4+ T cells), median IC50 (IL-7 1 ng/ml) (human IL-7 [5]): 5.1 ng/ml and 34 pM | Kd (human IL-7 [6]): 0.0674 nM | Kd (cynomolgus monkey IL-7 [7]): 0.053 nM | koff (cynomolgus monkey IL-7 [7]): 0.00017 s⁻¹ | kon (cynomolgus monkey IL-7 [7]): 3.17e+06 M⁻¹ s⁻¹ | Kd (human IL-7 [8]): 0.031 nM and 0.034 nM | koff (human IL-7 [8]): 0.000206 s⁻¹ and 0.000158 s⁻¹ | kon (human IL-7 [8]): 6.49e+06 M⁻¹ s⁻¹ and 4.65e+06 M⁻¹ s⁻¹
B1: DRSPAI-L7B (antibody, human IgG1, kappa, V domains shown)
VH: QVQLVESGGGVVQPGRSLRLSCAASGFTFSSYGVHWVRQAPGKGLEWLAAIWTGGSTDYNSAFSSRFTISRDNSKNTLYLQMNSLRAEDTAVYYCARNGYGESFAYWGQGTLVTVSS
VL: DIQMTQSPSSLSASVGDRVTITCKASESLDHDGDSYINWYQQKPGKAPKLLIYMGSNVEFGVPARFSGSGSGTDFTLTISSLQPEDFATYYCQQSNVDPLTFGGGTKVEIKR
notes: Human IgG1 kappa; also called DRSPAI-171B; DRSPAI-17B

pSTAT5 in whole blood (CD4+ T cells), median IC50 (human IL-7 [2]): 18 pM and 0.00275 µg/ml
B2: A1290 (antibody, human IgG1, kappa, V domains shown)
VH: QVQLVESGGGVVQPGRSLRLSCAASGFTFSSYGLHWVRQAPGKGLEWLAAIWTGGSTDYNAAFISRFTISRDNSKNTLYLQMNSLRAEDTAVYYCARNGYGESFAYWGQGTLVTVSS
VL: DIQMTQSPSSLSASVGDRVTITCKASQSVDDDGDSFINWYQQKPGKAPKLLIYVASNLESGVPARFSGSGSGTDFTLTISSLQPEDFATYYCQQSNEDPLTFGGGTKVEIKR

pSTAT5 in whole blood (CD4+ T cells), median IC50 (human IL-7 [2]): 16 pM and 0.00246 µg/ml
B3: A1291 (antibody, human IgG1, kappa, V domains shown)
VH: QVQLVESGGGVVQPGRSLRLSCAASGFTFSSYGLHWVRQAPGKGLEWLAAIWTGGSTDYNAEFSSRFTISRDNSKNTLYLQMNSLRAEDTAVYYCARNGYGESFAYWGQGTLVTVSS
VL: DIQMTQSPSSLSASVGDRVTITCKASHSVDDDGDSYMNWYQQKPGKAPKLLIYMASNLESGVPARFSGSGSGTDFTLTISSLQPEDFATYYCQQSNEDPLTFGGGTKVEIKR

pSTAT5 in whole blood (CD4+ T cells), median IC50 (human IL-7 [2]): 76 pM and 0.0114 µg/ml
B4: A1294 (antibody, human IgG1, kappa, V domains shown)
VH: QVQLVESGGGVVQPGRSLRLSCAASGFTFSTYGVHWVRQAPGKGLEWLAAIWSGGSTDYNVAFSSRFTISRDNSKNTLYLQMNSLRAEDTAVYYCARNGYGESFAYWGQGTLVTVSS
VL: DIQMTQSPSSLSASVGDRVTITCKASQSVDDDGDSYMNWYQQKPGKAPKLLIYMASNLESGVPARFSGSGSGTDFTLTISSLQPEDFATYYCQQSNEDPLTFGGGTKVEIKR
